Assay [1] addresses T1, recombinant human phosphorylated Tau protein (80AWB) (human, UniProt P10636-8 1-441, limits assumed, phosphorylated; sites not stated).
T1 construct: also called Protein Immobilized
Briefly: SPR Biacore, phosphorylated Tau protein immobilized. Here is the method:
Antibody binding to immobilized, phosphorylated Tau protein was measured using Series S Sensor Chips NTA (GE Healthcare, BR100034). The running buffer for the immobilization was 10 mM HEPES, 150 mM […], 0.05% v/v Surfactant P20, pH 7.4 (GE Healthcare, BR100671) and the flow rate was 10 μL/minute. 350 mM EDTA was injected for 1 minute to clean the chip, followed by a 2 minute injection of 0.5 mM NiCl₂ (GE Healthcare, NTA Reagent Kit) to prepare the chip to capture his-tagged protein. The chip was activated according to the manufacturer's instructions using an amine coupling kit (GE Healthcare, BR100633), then 300 nM phosphorylated Tau protein (80AWB) was injected until the desired amount of protein had been immobilized. The chip was blocked with ethanolamine from the amine coupling kit. Each experiment used multiple levels of immobilized phosphorylated Tau protein. The lowest level varied from 54 resonance units (RU) to 452 RU, and the highest level varied from 463 RU to 1020 RU. […] Each concentration and several buffer blanks were injected for 3 minutes at a flowrate of […]. The dissociation of the antibody was monitored for 15 minutes, then the surface was regenerated with a 30 second to 1 minute injection of 100 mM CAPS (Sigma, C6070), 1 M KCl (Sigma, P9541), 1 mM EDTA, 2 mM DTT, pH 10.5. […]
Background: SPR reads the build-up and loss of mass on a sensor chip optically.

Assay [2] has as its target T2, monophosphorylated tau peptide 1×P, TSPRHLSNVS(pS)TGSIDMVDSPC (human, phosphoserine (pS) at peptide position 11 (tau Ser413)).
T2 construct: also called 1xP; 1×P peptide
T2 peptide: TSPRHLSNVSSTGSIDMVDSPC
Briefly: SPR Biacore, 1×P peptide immobilized. The procedure:
Antibody binding to immobilized, phosphorylated Tau peptide was measured using a Series S Sensor Chip CM3 (GE Healthcare, BR100536). The chip was activated using an amine coupling kit, then 30 μg/mL phosphorylated Tau peptide (SEQ ID NO:75) in 10 mM sodium acetate, pH 5.0 was injected until 51 RU had been immobilized. The chip was blocked with ethanolamine. A negative control reference surface was prepared similarly, using non-phosphorylated Tau peptide ([…], SEQ ID NO:77). […] Each concentration and several buffer blanks were injected for 3 minutes at a flowrate of 45 μL/minute. The dissociation of the antibody was monitored for 15 minutes. The surface was regenerated with a 30 second injection of 100 mM hydrochloric acid (Fisher Scientific, SA56-1, Waltham, Mass.).
The data were processed and fit using Biacore™ M T200 Evaluation Software version 2.0 or Biacore™ 4000 Evaluation Software version 1.1 (GE Healthcare). The data were “double referenced” by subtracting the response from a negative control flowcell and subtracting the response from a buffer injection or the average response from two buffer injections. The data were then fit with the “1:1 Binding” model to determine the association rate constant, kₐ (M⁻¹s⁻¹, where “M” equals molar and “s” equals seconds) and the dissociation rate constant, kd (s⁻¹). […]

T1 sequence (P10636 other isoform, or with tags, fused parts or gaps limits assumed): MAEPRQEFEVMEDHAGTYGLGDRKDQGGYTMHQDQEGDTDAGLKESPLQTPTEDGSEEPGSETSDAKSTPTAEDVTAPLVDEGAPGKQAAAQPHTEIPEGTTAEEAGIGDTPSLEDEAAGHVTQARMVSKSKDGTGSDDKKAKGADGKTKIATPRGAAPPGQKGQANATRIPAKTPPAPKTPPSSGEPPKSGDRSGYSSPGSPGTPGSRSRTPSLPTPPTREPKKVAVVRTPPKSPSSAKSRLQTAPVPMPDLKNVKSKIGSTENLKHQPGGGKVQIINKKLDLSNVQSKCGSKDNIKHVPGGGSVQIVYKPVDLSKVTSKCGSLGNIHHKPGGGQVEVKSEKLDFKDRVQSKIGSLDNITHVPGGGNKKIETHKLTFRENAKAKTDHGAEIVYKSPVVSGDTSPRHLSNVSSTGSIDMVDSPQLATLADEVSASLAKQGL

B1: Humanized × [MAPT_H] mAb (Ta1505-VL46_G34S/VH11) IgG4 S228P/Kappa (CX) (antibody, V domains shown)
VH: EVQLVESGGGLVQPGGSLRLSCAASGFTFSSFALNWVRQAPGKGLEWVGHIRSKTNNYATFYAASVKDRFTVSRDDSQNTAYLQMNSLKTEDTATYYCVRRGPRDSWFGYWGQGTLVTVSS
VL: DIVMTQSPLSLPVTLGEPASISCRSSQSIVHSNSNTYLEWYLQKPGQSPQLLIYTVSNRFSGVPDRFSGSGSGTDFTLKISRVEAEDLGVYYCFQGSHLPLTFGGGTKVEIKR
notes: also called hu VL46/VH11 G34S IgG4
Turning to B1, the binding result in assay [1] and in assay [2] was “no binding (tested: 0.37 nM to 30 nM antibody)” each time.

The values above are taken from US20180346564A1 (TEIJIN PHARMA, published 2018).
